Measurements from patent US20210403538A1.

How the values were obtained:
[1] = target: Jurkat-EBOV GPCL (Zaire ebolavirus (EBOV), Makona)
[2] = target: Jurkat-EBOV GP (Zaire ebolavirus (EBOV), Makona)

rEBOV-520 LALA (antibody), sequence (VH): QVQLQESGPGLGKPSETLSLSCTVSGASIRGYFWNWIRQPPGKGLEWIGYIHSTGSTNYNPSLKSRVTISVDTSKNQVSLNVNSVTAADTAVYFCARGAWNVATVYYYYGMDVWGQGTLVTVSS
rEBOV-520 LALA (antibody), sequence (VL): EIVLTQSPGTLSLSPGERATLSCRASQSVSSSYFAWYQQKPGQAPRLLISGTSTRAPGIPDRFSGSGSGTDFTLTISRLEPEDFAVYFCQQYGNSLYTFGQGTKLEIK

Substance	fold decrease in binding [1] [fold]	fold increase in binding [2] [fold]
MR72 (antibody)	2.8	
rEBOV-520 LALA (antibody)		< 4.6
